Measurements: paper PMC3701624, “Three-Dimensional Structure of Human NLRP10/PYNOD Pyrin Domain Reveals a Homotypic Interaction Site Distinct from Its Mouse Homologue” (PLoS ONE, 2013)

How the values were obtained:
[1] = substrate: Nc1nc2c(ncn2[C@@H]2O[C@H](COP(=O)(O)OP(=O)(O)OP(=O)(O)O)[C@@H](O)[C@H]2O)c(=O)[nH]1; test: malachite green phosphate release, Lineweaver-Burk; type: biochemical, Homo sapiens; conditions: 50 mM Tris-HCl pH 8.0, 10 mM MgCl2, 37°C, 3 µM protein, 0.1–3.2 mM nucleotide
Description: (§1) malachite green phosphate release, Lineweaver-Burk on MBP-huNLRP10 (huNLRP10, PYNOD)

[2] = substrate: Nc1ncnc2c1ncn2[C@@H]1O[C@H](COP(=O)(O)OP(=O)(O)OP(=O)(O)O)[C@@H](O)[C@H]1O; test: malachite green phosphate release, Lineweaver-Burk; type: biochemical, Homo sapiens; conditions: 50 mM Tris-HCl pH 8.0, 10 mM MgCl2, 37°C, 3 µM protein, 0.1–3.2 mM nucleotide
Description: as §1

[3] = substrate: Nc1nc2c(ncn2[C@@H]2O[C@H](COP(=O)(O)OP(=O)(O)OP(=O)(O)O)[C@@H](O)[C@H]2O)c(=O)[nH]1; test: malachite green phosphate release, Lineweaver-Burk; type: biochemical, Homo sapiens; conditions: 50 mM Tris-HCl pH 8.0, 10 mM MgCl2, 37°C, 3 µM protein, 0.1–3.2 mM nucleotide; remark: listed apart in the source
Description: (§2) malachite green phosphate release, Lineweaver-Burk on MBP-huNLRP10ΔPYD (huNLRP10ΔPYD)

[4] = substrate: Nc1ncnc2c1ncn2[C@@H]1O[C@H](COP(=O)(O)OP(=O)(O)OP(=O)(O)O)[C@@H](O)[C@H]1O; test: malachite green phosphate release, Lineweaver-Burk; type: biochemical, Homo sapiens; conditions: 50 mM Tris-HCl pH 8.0, 10 mM MgCl2, 37°C, 3 µM protein, 0.1–3.2 mM nucleotide; remark: listed apart in the source
Description: as §2

[5] = molecular target: T1, MBP-huNLRP10ΔPYD (Arg103-Ile655) (Homo sapiens (Human), UniProt Q86W26); test: size-exclusion chromatography and pull-down (data not shown)
T1 chain: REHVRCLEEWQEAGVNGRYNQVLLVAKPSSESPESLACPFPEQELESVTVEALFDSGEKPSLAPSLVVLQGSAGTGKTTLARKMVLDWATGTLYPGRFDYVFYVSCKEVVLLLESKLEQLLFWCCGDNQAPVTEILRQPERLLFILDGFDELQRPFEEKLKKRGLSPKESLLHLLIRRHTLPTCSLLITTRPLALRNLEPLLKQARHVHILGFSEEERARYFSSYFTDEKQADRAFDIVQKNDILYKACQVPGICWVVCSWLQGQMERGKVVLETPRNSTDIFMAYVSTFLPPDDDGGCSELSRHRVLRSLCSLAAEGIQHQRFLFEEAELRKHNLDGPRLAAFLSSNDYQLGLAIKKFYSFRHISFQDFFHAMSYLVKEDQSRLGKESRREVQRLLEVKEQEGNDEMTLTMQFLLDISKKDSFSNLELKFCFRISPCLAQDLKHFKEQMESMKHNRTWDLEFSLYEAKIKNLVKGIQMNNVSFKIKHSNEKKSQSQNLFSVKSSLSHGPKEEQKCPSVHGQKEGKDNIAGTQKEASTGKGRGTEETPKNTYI

B1: MBP-huNLRP10 (huNLRP10, PYNOD) (Homo sapiens) (protein)
chain: MAMAKARKPREALLWALSDLEENDFKKLKFYLRDMTLSEGQPPLARGELEGLIPVDLAELLISKYGEKEAVKVVLKGLKVMNLLELVDQLSHICLHDYREVYREHVRCLEEWQEAGVNGRYNQVLLVAKPSSESPESLACPFPEQELESVTVEALFDSGEKPSLAPSLVVLQGSAGTGKTTLARKMVLDWATGTLYPGRFDYVFYVSCKEVVLLLESKLEQLLFWCCGDNQAPVTEILRQPERLLFILDGFDELQRPFEEKLKKRGLSPKESLLHLLIRRHTLPTCSLLITTRPLALRNLEPLLKQARHVHILGFSEEERARYFSSYFTDEKQADRAFDIVQKNDILYKACQVPGICWVVCSWLQGQMERGKVVLETPRNSTDIFMAYVSTFLPPDDDGGCSELSRHRVLRSLCSLAAEGIQHQRFLFEEAELRKHNLDGPRLAAFLSSNDYQLGLAIKKFYSFRHISFQDFFHAMSYLVKEDQSRLGKESRREVQRLLEVKEQEGNDEMTLTMQFLLDISKKDSFSNLELKFCFRISPCLAQDLKHFKEQMESMKHNRTWDLEFSLYEAKIKNLVKGIQMNNVSFKIKHSNEKKSQSQNLFSVKSSLSHGPKEEQKCPSVHGQKEGKDNIAGTQKEASTGKGRGTEETPKNTYI
notes: full length (Met1-Ile655), N-terminal His6-MBP fusion (pETM41), tag kept; E. coli BL21(DE3)
B1 was tested, and the Km [1] was 295.6 ± 11.0 µM and the Km [2] was 169.3 ± 7.3 µM.

B2: MBP-huNLRP10ΔPYD (huNLRP10ΔPYD) (Homo sapiens) (protein)
chain: REHVRCLEEWQEAGVNGRYNQVLLVAKPSSESPESLACPFPEQELESVTVEALFDSGEKPSLAPSLVVLQGSAGTGKTTLARKMVLDWATGTLYPGRFDYVFYVSCKEVVLLLESKLEQLLFWCCGDNQAPVTEILRQPERLLFILDGFDELQRPFEEKLKKRGLSPKESLLHLLIRRHTLPTCSLLITTRPLALRNLEPLLKQARHVHILGFSEEERARYFSSYFTDEKQADRAFDIVQKNDILYKACQVPGICWVVCSWLQGQMERGKVVLETPRNSTDIFMAYVSTFLPPDDDGGCSELSRHRVLRSLCSLAAEGIQHQRFLFEEAELRKHNLDGPRLAAFLSSNDYQLGLAIKKFYSFRHISFQDFFHAMSYLVKEDQSRLGKESRREVQRLLEVKEQEGNDEMTLTMQFLLDISKKDSFSNLELKFCFRISPCLAQDLKHFKEQMESMKHNRTWDLEFSLYEAKIKNLVKGIQMNNVSFKIKHSNEKKSQSQNLFSVKSSLSHGPKEEQKCPSVHGQKEGKDNIAGTQKEASTGKGRGTEETPKNTYI
notes: NOD only, pyrin domain removed (Arg103-Ile655), N-terminal His6-MBP fusion (pETM41), tag kept; E. coli BL21(DE3)
In the case of B2, the Km [3] is reported as 193.7 ± 17.1 µM and the Km [4] is reported as 201.9 ± 1.9 µM.

B3: human NLRP10/PYNOD pyrin domain (residues 1-100) (protein)
chain: MAMAKARKPREALLWALSDLEENDFKKLKFYLRDMTLSEGQPPLARGELEGLIPVDLAELLISKYGEKEAVKVVLKGLKVMNLLELVDQLSHICLHDYRE
B3: no binding [5].
